Experiments:
[1] = biological target: murine PD1 antigen (murine) (UniProt Q02242); assay: ELISA, coated murine PD1
[2] = biological target: cynomolgus monkey PD1 antigen (cynomolgus monkey) (UniProt B0LAJ3); assay: ELISA, coated cynomolgus PD1
[3] = biological target: hCD32aR (human) (UniProt P12318); assay: ELISA, coated hCD32aR, IgG aggregated with anti-CK F(ab')2-HRP
[4] = biological target: cynomolgus monkey PD1 antigen (cynomolgus monkey) (UniProt B0LAJ3); assay: ELISA, coated cynomolgus PD1, 0.2 µg/ml
[5] = biological target: hCD32aH (human) (UniProt P12318); assay: ELISA, coated hCD32aH, 0.5 µg/ml
Sequence of hCD32aH (human) (P12318 36-218): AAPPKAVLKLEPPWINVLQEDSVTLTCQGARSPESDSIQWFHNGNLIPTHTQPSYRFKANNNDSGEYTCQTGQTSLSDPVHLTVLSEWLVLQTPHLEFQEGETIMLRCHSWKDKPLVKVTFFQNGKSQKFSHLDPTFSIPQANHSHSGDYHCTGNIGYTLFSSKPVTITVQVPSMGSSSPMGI

[6] = biological target: hCD32aH (human) (UniProt P12318); assay: ELISA, coated hCD32aH, IgG aggregated with anti-CK F(ab')2-HRP
[7] = biological target: FcRn receptor (recombinant protein human FcRnα and β2-microglobulin) (human) (UniProt P55899); assay: ELISA at pH 6, coated FcRn, 10 µg/ml
[8] = biological target: human CD64 receptor (hFcγRI) (human) (UniProt P12314); assay: ELISA, coated hCD64
Sequence of human CD64 receptor (hFcγRI) (human) (P12314 16-288 limits assumed): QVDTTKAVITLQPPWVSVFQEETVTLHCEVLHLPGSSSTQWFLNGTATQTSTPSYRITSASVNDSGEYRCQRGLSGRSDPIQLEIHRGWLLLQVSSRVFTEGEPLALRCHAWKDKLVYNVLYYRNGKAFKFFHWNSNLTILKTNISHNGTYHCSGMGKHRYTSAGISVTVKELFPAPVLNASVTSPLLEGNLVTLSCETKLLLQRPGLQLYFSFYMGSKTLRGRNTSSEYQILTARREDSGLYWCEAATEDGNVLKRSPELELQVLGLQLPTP

[9] = biological target: hCD32aR (human) (UniProt P12318); assay: ELISA, coated hCD32aR, 0.5 µg/ml
[10] = biological target: hCD16aV (human) (UniProt P08637); assay: ELISA, coated hCD16aV, IgG aggregated with anti-CK F(ab')2-HRP
[11] = biological target: human CD64 receptor (hFcγRI) (human) (UniProt P12314); assay: ELISA, coated hCD64, 0.5 µg/ml
[12] = biological target: human PD1 antigen (recombinant protein) (human) (UniProt Q15116); assay: ELISA, coated human PD1, 0.2 µg/ml
Sequence of human PD1 antigen (recombinant protein) (human) (Q15116 25-167 limits assumed): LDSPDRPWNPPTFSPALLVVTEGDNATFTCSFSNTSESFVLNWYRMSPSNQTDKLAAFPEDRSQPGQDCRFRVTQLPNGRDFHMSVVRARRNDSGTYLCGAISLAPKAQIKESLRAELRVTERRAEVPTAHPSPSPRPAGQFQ

[13] = biological target: hCD32b (human) (UniProt P31994); assay: ELISA, coated hCD32b, IgG aggregated with anti-CK F(ab')2-HRP
Sequence of hCD32b (human) (P31994 46-217): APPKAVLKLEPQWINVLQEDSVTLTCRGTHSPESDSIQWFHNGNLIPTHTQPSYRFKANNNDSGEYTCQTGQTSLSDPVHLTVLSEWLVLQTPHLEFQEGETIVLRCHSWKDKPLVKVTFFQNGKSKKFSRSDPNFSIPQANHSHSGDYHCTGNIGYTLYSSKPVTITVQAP

[14] = biological target: hCD16aV (human) (UniProt P08637); assay: ELISA, coated hCD16aV, 0.5 µg/ml
[15] = biological target: hCD32b (human) (UniProt P31994); assay: ELISA, coated hCD32b, 0.5 µg/ml
[16] = biological target: FcRn receptor (recombinant protein human FcRnα and β2-microglobulin) (human) (UniProt P55899); assay: ELISA at pH 6, coated FcRn
[17] = biological target: human PD1 antigen (recombinant protein) (human) (UniProt Q15116); assay: ELISA, coated human PD1

Sequence of cynomolgus monkey PD1 antigen (cynomolgus monkey) (B0LAJ3 entry or part of it limits assumed, form in doubt): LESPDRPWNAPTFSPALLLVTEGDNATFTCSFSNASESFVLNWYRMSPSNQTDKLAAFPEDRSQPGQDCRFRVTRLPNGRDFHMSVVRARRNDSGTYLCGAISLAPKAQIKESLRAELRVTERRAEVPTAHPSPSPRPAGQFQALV
Sequence of murine PD1 antigen (murine) (Q02242 25-167 limits assumed): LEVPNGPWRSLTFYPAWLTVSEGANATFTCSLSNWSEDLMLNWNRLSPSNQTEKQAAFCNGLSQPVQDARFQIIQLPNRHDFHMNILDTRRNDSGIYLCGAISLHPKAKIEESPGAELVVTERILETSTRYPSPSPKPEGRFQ

OD 450 nm at 0.2 µg/ml [1] [OD 450 nm]	OD 450 nm at 0.2 µg/ml [2] [OD 450 nm]	OD 450 nm at 0.5 µg/ml [3] [OD 450 nm]	OD Ratio variant/IgG1 WT [4]	OD Ratio variant/IgG1 WT [5]	OD 450 nm at 0.5 µg/ml [6] [OD 450 nm]	OD Ratio variant/IgG1 WT [7]	OD 450 nm at 0.5 µg/ml [8] [OD 450 nm]	OD Ratio variant/IgG1 WT [9]	OD 450 nm at 0.5 µg/ml [10] [OD 450 nm]	OD Ratio variant/IgG1 WT [11]	OD Ratio variant/IgG1 WT [12]	OD 450 nm at 0.5 µg/ml [13] [OD 450 nm]	OD Ratio variant/IgG1 WT [14]	OD Ratio variant/IgG1 WT [15]	OD 450 nm at 10 µg/ml [16] [OD 450 nm]	OD 450 nm at 0.2 µg/ml [17] [OD 450 nm]	Substance
0.235	2.28	2.43	0.95	1.02	1.65	7.47	1.24	0.65	1.07	0.98	1.1	0.481	1.31	0.24	2.37	2.87	IgG1_C6A_74 nivolumab (V259I/N315D/N434Y) (antibody)
0.31	2.29	0.242	0.96	0.05	0.0798	7.27	0.0574	0.06	0.121	0.05	1.06	0.132	0.15	0.06	2.3	2.77	IgG1_C6A_74Del294 nivolumab (V259I/Del294/N315D/N434Y) (antibody)
–	–	–	–	–	–	–	1.26	–	–	–	–	–	–	–	0.317	–	IgG1_WT nivolumab (from UniProt P01857 1-330) (antibody)
–	–	–	–	–	–	–	0.777	–	–	–	–	–	–	–	0.379	–	IgG1_WT pembrolizumab (from UniProt P01857 1-330) (antibody)
